Test results taken from paper PMC3585228, “Consequences of ChemR23 Heteromerization with the Chemokine Receptors CXCR4 and CCR7” (PLoS ONE, 2013).

T1: CCR7-hRLuc / CCR7-EYFP (human, UniProt P32248 25-378)
T1 construct: chemokine receptor CCR7; cDNA in pcDNA3.1, fusion at its 3' end; Two constructs, each with ONE of the two fusions: CCR7-hRLuc (donor) and CCR7-EYFP (acceptor); source: HEK-293T, transfected (calcium phosphate), in living cells; not shown: hRLuc (humanized Renilla luciferase), C-terminal, kept; EYFP, C-terminal, kept
T1 sequence (looked up): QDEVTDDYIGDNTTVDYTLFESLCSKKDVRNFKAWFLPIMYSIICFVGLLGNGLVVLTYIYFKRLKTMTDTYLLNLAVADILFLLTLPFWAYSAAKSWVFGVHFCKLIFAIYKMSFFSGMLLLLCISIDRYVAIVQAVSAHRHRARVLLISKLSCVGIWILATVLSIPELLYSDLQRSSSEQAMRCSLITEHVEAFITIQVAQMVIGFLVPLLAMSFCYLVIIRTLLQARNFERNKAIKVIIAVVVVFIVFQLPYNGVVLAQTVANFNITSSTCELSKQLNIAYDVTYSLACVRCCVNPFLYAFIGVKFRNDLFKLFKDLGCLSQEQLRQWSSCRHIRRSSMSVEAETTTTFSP

T2: CCR7 on CHO-K1 cells (human, UniProt P32248 25-378)
T2 sequence (looked up): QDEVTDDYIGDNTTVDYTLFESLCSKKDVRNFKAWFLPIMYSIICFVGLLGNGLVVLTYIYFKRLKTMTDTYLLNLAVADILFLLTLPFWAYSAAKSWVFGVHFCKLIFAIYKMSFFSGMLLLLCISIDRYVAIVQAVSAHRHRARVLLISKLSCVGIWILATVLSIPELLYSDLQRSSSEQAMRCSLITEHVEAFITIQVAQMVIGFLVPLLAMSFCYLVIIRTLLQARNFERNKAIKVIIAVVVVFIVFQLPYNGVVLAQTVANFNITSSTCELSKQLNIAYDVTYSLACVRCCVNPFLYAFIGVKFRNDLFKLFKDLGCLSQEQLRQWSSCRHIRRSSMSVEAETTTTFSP


How the values were obtained:
CXCR4-hRLuc / CXCR4-EYFP = target: T3, CXCR4-hRLuc / CXCR4-EYFP (human, UniProt P61073 1-352); assay: FRET or BRET; BRET titration in HEK293T cells: constant amount of the hRLuc donor construct, increasing amounts of the EYFP acceptor construct; signal recorded 5 minutes after coelenterazine H; details: partners not purified
T3 construct: chemokine receptor CXCR4; cDNA in pcDNA3.1, fusion at its 3' end; Two constructs, each with ONE of the two fusions: CXCR4-hRLuc (donor) and CXCR4-EYFP (acceptor); source: HEK-293T, transfected (calcium phosphate), in living cells; not shown: hRLuc (humanized Renilla luciferase), C-terminal, kept; EYFP, C-terminal, kept

CCR7-hRLuc / CCR7-EYFP = target: T1, CCR7-hRLuc / CCR7-EYFP; assay: as above; details: partners not purified
CCR7 on CHO-K1 cells [1] = target: T2, CCR7 on CHO-K1 cells; assay: cell-based or functional assay
CCR7 on CHO-K1 cells [2] = target: T2, CCR7 on CHO-K1 cells; assay: radioligand binding; competition on CHO-K1 cells expressing CCR7 only (methods: membrane preparations); tracer 0.1 nM 125I-CCL19; 50 mM Hepes pH 7.4, 1 mM CaCl2, 5 mM MgCl2, 0.5% BSA; one hour; filtration; details: one partner purified
CCR7 on CHO-K1 cells [3] = target: T2, CCR7 on CHO-K1 cells; assay: radioligand binding; competition on CHO-K1 cells co-expressing ChemR23 and CCR7; tracer 0.1 nM 125I-CCL19; competitors CCL19 (homologous) or chemerin (heterologous, cross-competition); same buffer, one hour, filtration; details: one partner purified
CCR7 on CHO-K1 cells [4] = target: T2, CCR7 on CHO-K1 cells; assay: radioligand binding; competition on CHO-K1 cells co-expressing ChemR23 and CCR7; tracer 0.1 nM 125I-[145-157]-chemerin; competitors chemerin (homologous) or CCL19 (heterologous, cross-competition); same buffer, one hour, filtration; details: one partner purified

T3 sequence (P61073 whole entry, the tested form may be a part): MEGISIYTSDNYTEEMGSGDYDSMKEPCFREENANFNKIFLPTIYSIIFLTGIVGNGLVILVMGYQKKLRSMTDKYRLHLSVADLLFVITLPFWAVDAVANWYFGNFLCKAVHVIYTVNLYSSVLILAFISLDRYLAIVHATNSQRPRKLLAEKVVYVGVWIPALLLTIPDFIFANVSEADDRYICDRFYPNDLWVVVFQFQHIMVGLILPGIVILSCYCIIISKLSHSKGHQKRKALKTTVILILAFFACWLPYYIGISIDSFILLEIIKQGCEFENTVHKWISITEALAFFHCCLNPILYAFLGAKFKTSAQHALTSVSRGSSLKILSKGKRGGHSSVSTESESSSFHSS

BRET50, fold against the CXCR4 homomer (CXCR4-hRLuc / CXCR4-EYFP) [fold]	BRET50, fold against the CCR7 homomer (CCR7-hRLuc / CCR7-EYFP) [fold]	EC50 of calcium mobilization (aequorin assay), CHO-K1 cells expressing CCR7 only (CCR7 on CHO-K1 cells [1]) [nM]	IC50 (CCR7 on CHO-K1 cells [2]) [nM]	IC50 (CCR7 on CHO-K1 cells [3]) [nM]	IC50 (CCR7 on CHO-K1 cells [4]) [nM]	Binder
2	2	–	–	–	–	ChemR23-hRLuc / ChemR23-EYFP (receptor, human, UniProt Q99788 1-373, looked up, ChemR23, the receptor of chemerin; cDNA in pcDNA3.1, fusion at its 3' end; Two constructs, each with ONE of the two fusions: ChemR23-hRLuc (BRET donor) and ChemR23-EYFP (BRET acceptor); source: HEK-293T, transfected (calcium phosphate), in living cells; not shown: hRLuc (humanized Renilla luciferase), C-terminal, kept; EYFP, C-terminal, kept) MRMEDEDYNTSISYGDEYPDYLDSIVVLEDLSPLEARVTRIFLVVVYSIVCFLGILGNGLVIIIATFKMKKTVNMVWFLNLAVADFLFNVFLPIHITYAAMDYHWVFGTAMCKISNFLLIHNMFTSVFLLTIISSDRCISVLLPVWSQNHRSVRLAYMACMVIWVLAFFLSSPSLVFRDTANLHGKISCFNNFSLSTPGSSSWPTHSQMDPVGYSRHMVVTVTRFLCGFLVPVLIITACYLTIVCKLQRNRLAKTKKPFKIIVTIIITFFLCWCPYHTLNLLELHHTAMPGSVFSLGLPLATALAIANSCMNPILYVFMGQDFKKFKVALFSRLVNALSEDTGHSSYPSHRSFTKMSSMNERTSMNERETGML
–	–	7.66	2.42	0.27	6.85	CCL19 (unlabelled) (ligand, UniProt Q99731 22-98, looked up, chemokine CCL19, the CCR7-specific ligand) GTNDAEDCCLSVTQKPIPGYIVRNFHYLLIKDGCRVPAVVFTTLRGRQLCAPPDQPWVERIIQRLQRTSAKMKRRSS
